Data from the DeepSol protein solubility set.

assay: soluble on expression in E. coli; label from the status in PepcDB or PDB records

Sequence | soluble on expression in E. coli
MSLKPQKILIATDGSEASEKAADFGIETLRFEGAKVYAVYVIDTGSYGSVPVDEKKFKKIERLEEIGHKATSYVEKKATAAGMKVESIVLKGNPAEEIVDFAEEQRVDMIVVGSLGKSGIKRFMLGSVSEKVVRRAKIPVLVVREQKEIKPQKQILIAADCSKATEKAVDFGIEIAKLNGAKVYAVHVIDPIFNDLMEEAWAENAYEQFKKIGREAVSYVEEKANAAGVKVESAVLEGNPAEEIVDFAEEQKVDMIVVGSLGKSGYEQFAIGSVSSKVLRNAKVPVLIVHDIYEFVELFRRCQKSEEVLTPVAGEKEGHHHHHH | soluble
MNNSGADEIGKLFVGGLDWSTTQETLRSYFSQYGEVVDCVIMKDKTTNQSRGFGFVKFKDPNCVGTVLASRPHTLDGRNIDPKPCTPRGMQPERTRPKEGWQKGPRSDNSKSNKIFVGGIPHNCGETELREYFKKFGVVTEVVMIYDAEKQRPRGFGFITFEDEQSVDQAVNMHFHDIMGKKVEVKRAEPRDSKSQAPGQPGASQWGSRVVPNAANGWAGQPPPTWQQGYGPQGMWVPAGQAIGGYGPPPAGRGAPPPPPPFTSYIVSTPPGGFPPPQGFPQGYGAPPQFSFGYGPPPPPPDQFAPPGVPPPPATPGAAPLAFPPPPSQAAPDMSKPPTAQPDFPYGQYAGYGQDLSGFGQGFSDPSQQPPSYGGPSVPGSGGPPAGGSGFGRGQNHNVQGFHPYRR | soluble
MVIRVYIASSSGSTAIKKKQQDVLGFLEANKIGFEEKDIAANEENRKWMRENVPENSRPATGYPLPPQIFNESQYRGDYDAFFEARENNAVYAFLGLTAPPGSKEAEV | soluble
MNSRIETFHQMEWHFFSLISMELLSLEGLKACNSGMPIPALNPVFYSGKSTLLVAEIYQCKRFYESHSVPWALMVPDYLSDTKTDNVLAQSGFLSIDQGVAMYLSIQDLGMPGFKSDLLIKRMDNEMETWILPTIPAFESTAEIAKIYRVRHQEAIEKSSDIYHFSGFIQEQIVCSLTLTVMGDCARIDDVATFPKYQKNGYATQLILSELQILKDTNISWCFLEASADGLNIYKKIGFRELFKNLYYEEQYHYEQN | not soluble
MAHHHHHHMDMLGAVVVENSNLTTTLPAPHTLHERPAEGFSPQRRVLLVPLTEAYEHTTGWMVPTEMEGAQLAMSLYVNDTPVSLPPNWQLSPAKEAAAVKTAMAVDITPLVLSIERDLFSLQVIFSGDVAEMEMWRGVIACVLVEEVELAQLGERIVSTYHKRRAPVIRRSPLSSCGERGVVAITEVSVKIQCPITTLTMEIPVRGMYCEHLQCMELAAVLIQCARQNVWNCPLCSAAMKPEDIIVNHRLKDWIASHSREVVAQVEYIVETELGRPLKIVYKAARPEQHSTIEVIDDEEK | not soluble
MAFEKIIQLKNCRYDYTLSPSVKKFTLKDNTFFETKVGNYELTRLLEKVPNSGEGFQLKIIINKELTGAKINITDKFGLRLVDIFKSEDHHIHQEKFYFLMDSLVERGVFTKSER | not soluble
MSLKIAAFGEVMLRFTPPEYLMLEQTEQLRMNFVGTGVNLLANLAHFQLETALITKLPANRLGEAGKAALRKLGISDQWVGEKGDHIGSFFAEMGYGIRPTQVTYQNRHQSAFGISEAKDYDFEAFLAEVDMVHICGISLSLTEKTRDAALILAQKAHAYQKKVCFDFNYRPSLNTANSALFMRQQYERILPYCDIVFGSRRDLVELLGFIPREDLEGEAQETELIQRFMSQYNLEWFAGTTRSHSQNQNYLSGYLYTQNEYQQSEKRPLLNLDRIGAGDAYAAGILYGYSQNWSLEKAVTFATVNGVLAHTIQGDIPLTTVKQVNHVLEHPNIDLIREGHHHHHH | soluble
MLSKIELMLLRSLETGKTYTPEEAAELSGLSKDAVLKAAYMLQERGYVRVIENVRTHYSLTEEGERYLKEGLPEEKLYSLVKSGVNSMDELRKRMGREFQIALGWLRRKGAVEVEGDKVVPKREPSFDERA | soluble
MGSDKIHHHHHHMRNYQIPNLFNLGDLETKKVLKAANQAHQALGELKGVVQTVPNQNILLGTLPLQEAKESSEIENIITTQDDLYQSNVATQQFTTIAAKEVHHYAQAVSFGFSEVRKTELITLNLIKQIQAKLEGNNAGFRKQIGTGLVNQRTGQVVYMPPQQPEMIEHYMSVLERFINDSEQIDYDPLVKMAIVHHQFESIHPFYDGNGRTGRIINILYLIQQNLLDTPILYLSRYINRNKDQYYYLLQFVRDHNDWEEWLIFMLNGIAETAKQTVDLINQIKKLMQEHKLLIRNQLPNIYSHELINNLYKYPYTKIDFIAEDCQVHRNTAGKRLEQLVDLGILKKVKIGKENFYINMELYYLLTK | not soluble
MADGEAVISTVNNVEEVHGQLFEVAPRYVNLSYIGEGAYGMVASALDTITRDRVAIKKISPFEHQTFCQRTLREIKILNRFKHENIINIQEIIRSETVDSLKDIYIVQCLMETDLYKLLKTQKLSNDHVCYFLYQILRGLKYIHSANVLHRDLKPSNLLLNTTCDLKICDFGLARVTDPQTDHTGFLTEYVATRWYRAPEIMLNSKGYTKSIDVWSVGCILAEMLSNRPLFPGKHYLDQLNLILAVVGSPSNADLQCIINDKARSYLISLPHKPKQPWARLYPGADPRALDLLDKMLTFNPHNRIDIEQALAHPYLEQYYDPGDEPVCEEPFTLEMEFDDLPKEKLKELIWEEAEAHHRRMEAEAAARNNGGQNPV | not soluble
MIEPGVNYADLFAKEVRKHPKKYPKTVRLAIDRWYRWKKRKDIWFDVDRANEMMDWVESFIVHTKGDMVGKPFLLEPWEKFIYSWIYGWVKENEKGQVVRVTREAYVQIPKKNGKTLIAVGALGYAMYGEGALSVDCYACASDFAQAQYAAKPFAATILNNPVLLDGTKIFKGPKGTVSSITYDYLHGDMAYTNKFIVQTKNIDNIEGSNPYFVLNDELHKQEKMEQYDNFKSAQISLPQPLMFNISTAGKGSSSVGIRVYKEAKEVLKRDDNDSNFVLIYEPNKGYDWTDRKVWEMCNPNWGISVDLSALESAFKTAQRSAHSKAEFLTKHLDVFVNGADNFFEQDQVEPCLVPTNELGNLSGEPCWIGLDLSKSRDLTCVSLNFPTWDAEGKAILKVKQLYFIPSENIDFREKEDNVPYSELAEQGFVEFCDGKLIDQEQIFHFIEDCMDFYDVQQVNYDPAMSDRLVEKLENLGLECVQVDQYARVLNSPLEDAERLFYEQRIMFDNPLFLYCALNVVVKMDFQGRKVPSKNQSKRKIDGFVAFLCAHKETMDQMIDVNEDDMDEYLDSIYR | not soluble
MNRSNAQTERGRRWYVGDRLHVDVRGLPCPEPLVTVLRLIDGSEVGDGLTALVSQEPLLLYPELDARGCRYRMVTPAGDTLLRDGEVVLEIERSK | not soluble
MDADVIVVGAGLAGLVAAHELTSRGRRVALVDQENAANLGGQAFWSFGGLFLVDSPEQRRLGVKDSLDLAWNDWQGSAGFDRTEDEDSWAVRWARAYVEWAAGEKRSWLAGHGITFLPTVGWAERGDLRAGGHGNSVPRFHIAWGTGTGVVEPFVRYAKQAARDGLLTFHHRHRVDHLVVEDGTARGVRGTVLAPDDSPRGVASSRDTAGEFELAAQAVIVTSGGIGADHDIVRRHWPERLGTPPAEMVTGVPAYVDGRMLGISAEAGARLVNRDRMWHYTEGVRNWDPIWPGHGIRILPGPSSMWFDALGRRLPEPYLPGYDTLGTLRHLRTAEGLAEHGHSWFVLTRKIIEKEFALSGSEQNPDITAKDRAGFLRERVLGKGAPGPVGAFLRHGADFVTAPDLEQLVEKMNRLTDKPLLDAAALRRQIEARDLQLANPYAKDAQVQGIRNARRYIGDRLGRVATPHRLLDPAAGPLIGVKLHILTRKTLGGIQTDLDSRALGADGTPVEGLYAAGEVAGFGGGGVHGYNALEGTFLGGCLFSGRAAGRAAARQTALEHHHHHH | not soluble
ASLFPPGLHAIYGECRRLYPDQPNPLQVTAIVKYWLGGPDPLDYVSMYRNVGSPSANIPEHWHYISFGLSDLYGDNRVHEFTGTDGPSGFGFELTFRLKRETGESAPPTWPAELMQGLARYVFQSENTFCSGDHVSWHSPLDNSESRIQHMLLTEDPQMQPVQTPFGVVTFLQIVGVCTEELHSAQQWNGQGILELLRTVPIAGGPWLITDMRRGETIFEIDPHLQERVDKGIETD | soluble
MARRRRAEVRQLQPDLVYGDVLVTAFINKIMRDGKKNLAARIFYDACKIIQEKTGQEPLKVFKQAVENVKPRMEVRSRRVGGANYQVPMEVSPRRQQSLALRWLVQAANQRPERRAAVRIAHELMDAAEGKGGAVKKKEDVERMAEANRAYAHYRW | soluble
MGSDKIHHHHHHNKSEDKLSGDDFWAQGNETNAEAFLLSIYNSFRNATMSQRPFLTYSGDMRCAPITAYSTGDKYVAYLANNDMGELRNTYPDDARGGLIMQWDVFYTAIQDANILLAEIDKVPGMDELKRSRFKAEAIFMRSLSYFFIVRAFGDVPYYTNAYNEAPLPRTNMVIVLQNCLADLQPLLDDDPGAEVLPWSYSSYSSKGIRASRGSVIALMMHINLWLVQFDAQNKEQYYRNVVSLGEELERNNGAYSLLDINRSSVIFAGGSDEGLFEIAQNINFNEIFMMNAKFSDNVSYSCLNKSMPLFCYSGDYLMTLFPMYEDDARKELWFDEKIYSTSVSSSAPKEIKKFWNIDTYGNGTITSNSGNQIVFRYAGALLLYAEALAALGTNDTKACELLNRVRNRAHASEINTSGSELMDAIFWERCRELIGEGHYYYDLVRTGKVYNRNYCMNPMTRTNFNVGAWTWPIHRNALKNNTQIGLNLFWE | not soluble
MQMQVLTNTKFETVAFQWPAGFYSDGIHIGLRRHKKDFGWLFSKVPASAAGTYTTNQFQAAPTKLTKQMIDQGHQLQGLLLNSAIANSCTGEQGWQNALQEQAWLANKLNVAPNLIGVASTGLIGAQLPMDKIKNGLPQLTPTKSDAVTYAVLTTDQHPKTVCVQCELSGQLVTLTGFAKGSGMIHPKMATMLGFVTTDAQIDGPVLQDMLSTNVDQTFNQITVDGDTSTNDMVVTLANGLADNPSLQAGTTDYDIFNQALHYVLGQLAKQIAADGEGATKLVECNVVHAATTFDGQQIAKAIVGSNLVKAAIFGEDPNWGRIISTIGATDADIDVATVDIEMNGVLLVQQSLAVDFDMAAVQATLRDNQIMIDVDLHHGTASGQAWGCDLTYNYVKINASYHTLEHHHHHH | not soluble
MSLIKLLALDMDGTLLNEAKEIPQAHITAIHKAIEKGVKLVLCTGRPLFGVLPYYKKLELDLQNEYIIVNNGCSTHQTSDWGLVDWQELSPADIEYLYDLAEKSDVQLTLFDESHYFVLGGKPNQVIENDAKLVFSDLTEISLEEATSGKFRMFQGMFLGTKEQTDDFEQRFAEELCQRFSGVRSQPVIYEAMPLGTTKATALSRLAEILKIDSSEIMAMGDANNDIEMLQFAGLGIAMGNASDYVKSLADAVTSSNEEDGVARAIEKYILEGHHHHHH | soluble
ISRLLAGQLDFRSAIRSVAAEVAHIIPHDHLDVCVLLEDGNYHTAYETGIETAWGDLAGAPVVNSPIRSLLWGEVDFLLADDAMTDPRFHFDGAFKRPIVEQSLRSRLHVPMKVQGAIIAALSCSSQEAGAYTMEDVERARIIADLLTPYFFALRAAEQAQR | not soluble
MIASIFGKITFVGKRKIIVEANCISYWFNVKENHSFEKNLEKPRQVFCQIIKRMVTNQILEEGFA | not soluble
MNTQKRQQIRTEIRKIRANLTALQQHQAEQSVTQHALNLIEQRQAKNIALYFSFDGEISTKALIQSLWMQNKNVYLPVLHPFTKHYLLFLRYLPDTPMKQNQFGIWEPKLNVQNVLPLNELDILFTPLVAFDKKGNRLGMGGGFYDRTLQNWQNKSFIPVGLAYQCQQVENLPTEHWDVPLFDILVGLEHHHHHH | not soluble
